According to paper PMC6697693, “head-bent resistant Hsc70 variants show reduced Hsp40 affinity and altered protein folding activity” (Scientific Reports, 2019):
Each block holds one binder with its values, some of them ahead of it.

What was measured:
Hsc70 A379V = target: T1, Hsc70 A379V (C. elegans, UniProt P09446 1-640, A379V); test: AUC; sedimentation velocity with fluorescence detection, 300 nM *BAG-1 with 2 µM Hsc70 variant, 42,000 rpm, 20 °C, 40 mM HEPES/KOH pH 7.5, 150 mM KCl, 1 mM DTT, 5 mM MgCl2; without nucleotide, and with ADP (complex diminished); details: both partners purified
T1 construct: Hsc70 (HSP-1) of C. elegans, encoded by hsp-1, with the suppressor mutation A379V; Mutation was found in a mutagenesis screen as a suppressor of unc-23(e25); source: expressed from mutated pET28b-Hsc70 (QuickChange PCR), purified (Ni-NTA, ion-exchange, size exclusion chromatography)
T1 sequence (P09446 whole entry A379V): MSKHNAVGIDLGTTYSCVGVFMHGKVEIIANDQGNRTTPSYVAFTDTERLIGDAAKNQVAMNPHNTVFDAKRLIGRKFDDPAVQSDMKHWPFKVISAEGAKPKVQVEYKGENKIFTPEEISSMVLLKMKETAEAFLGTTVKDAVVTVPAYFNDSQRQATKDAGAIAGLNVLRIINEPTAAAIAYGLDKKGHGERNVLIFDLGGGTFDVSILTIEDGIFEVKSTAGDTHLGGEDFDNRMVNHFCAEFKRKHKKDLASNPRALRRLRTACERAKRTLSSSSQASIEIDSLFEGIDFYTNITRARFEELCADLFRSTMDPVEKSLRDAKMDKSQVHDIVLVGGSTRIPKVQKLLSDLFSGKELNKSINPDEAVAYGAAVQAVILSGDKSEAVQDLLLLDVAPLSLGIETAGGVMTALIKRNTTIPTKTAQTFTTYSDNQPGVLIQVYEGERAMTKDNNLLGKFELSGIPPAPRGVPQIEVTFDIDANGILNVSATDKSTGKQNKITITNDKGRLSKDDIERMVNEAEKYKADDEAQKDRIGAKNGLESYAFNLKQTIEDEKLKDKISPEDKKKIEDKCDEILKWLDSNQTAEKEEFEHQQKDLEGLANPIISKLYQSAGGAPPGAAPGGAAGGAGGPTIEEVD

Hsc70 D233N = target: T2, Hsc70 D233N (C. elegans, UniProt P09446 1-640, D233N); test: as above; details: both partners purified
T2 construct: Hsc70 (HSP-1) of C. elegans, encoded by hsp-1, with the suppressor mutation D233N; Mutation was found in a mutagenesis screen as a suppressor of unc-23(e25); source: expressed from mutated pET28b-Hsc70 (QuickChange PCR), purified (Ni-NTA, ion-exchange, size exclusion chromatography)
T2 sequence (P09446 whole entry D233N): as the sequence (P09446 whole entry A379V) above, with D233N, V379A counted along it

Hsc70 D384N = target: T3, Hsc70 D384N (C. elegans, UniProt P09446 1-640, D384N); test: as above; details: both partners purified
T3 construct: Hsc70 (HSP-1) of C. elegans, encoded by hsp-1, with the suppressor mutation D384N; Mutation was identified as a suppressor of unc-23(ok1408); source: expressed from mutated pET28b-Hsc70 (QuickChange PCR), purified (Ni-NTA, ion-exchange, size exclusion chromatography)
T3 sequence (P09446 whole entry D384N): as the sequence (P09446 whole entry A379V) above, with V379A, D384N counted along it

[1] = target: T4, wild type Hsc70 (nematode Hsc70, HSP-1) (C. elegans, UniProt P09446 1-640); test: as above; details: both partners purified
T4 construct: Hsc70 (HSP-1) of C. elegans, encoded by hsp-1, the sole functional Hsc70-like protein of the nematode; About 70 kDa by ultracentrifugation; also called Hsc70 wild type; CeHsc70; source: expressed from pET28b-Hsc70, purified (Ni-NTA, ion-exchange, size exclusion chromatography)
T4 sequence (P09446 whole entry): as the sequence (P09446 whole entry A379V) above, with V379A counted along it

[2] = target: the molecule itself; test: AUC; sedimentation velocity, UV/VIS optics, 0.5 mg/mL protein; dc/dt plots and UltraScan II analysis; oligomerization status of Hsc70 variants

binding result (Hsc70 A379V): binds
binding result (Hsc70 D233N): binds
binding result (Hsc70 D384N): binds
binding result [1]: binds
B1: BAG-1 (nematode nucleotide exchange factor), fluorescently labelled (natural protein, C. elegans, UniProt O44739 1-210, looked up)
chain: MKVNVSCSSVQTTIDILEENQGEDESILTLGQLRDRIATDNDVDVETMKLLHRGKFLQGADDVSLSTLNFKENDKIIVMGGKNALVDDAGFKMLMQYEKHNLSNLQKAYDLNLRDVADLERGFLEKPKQVEMGKKLEKKVKYFNEEAERHLETLDGMNIITETTPENQAKRNREKRKTLVNGIQTLLNQNDALLRRLQEYQSVLNGDIPE
modifications: ATTO 488 C5-maleimide at its cysteine residue
notes: BAG-1, nucleotide exchange factor of Hsc70 in C. elegans; unlabelled BAG-1 was used in the ATPase assays

B2: Hsc70 S321F (natural protein)
chain: not shown
notes: Hsc70 (HSP-1) of C. elegans, encoded by hsp-1, with the suppressor mutation S321F; forms heterogeneous oligomers; source: expressed from mutated pET28b-Hsc70 (QuickChange PCR), purified (Ni-NTA, ion-exchange, size exclusion chromatography)
binding result [2]: binds
